Substrate in this series: Nc1nc2c(ncn2[C@H]2C[C@H](O)[C@@H](COP(=O)(O)O)O2)c(=O)[nH]1
Briefly: purified protein, by the assay type. The conditions noted are these: other: substrate of human DNPH1; double reciprocal plots, five concentrations; pH 7.0.

B1: human DNPH1 (Homo sapiens) (protein)
chain: MAAAMVPGRSESWERGEPGRPALYFCGSIRGGREDRTLYERIVSRLRRFGTVLTEHVAAAELGARGEEAAGGDRLIHEQDLEWLQQADVVVAEVTQPSLGVGYELGRAVAFNKRILCLFRPQSGRVLSAMIRGAADGSRFQVWDYEEGEVEALLDRYFEADPPGQVAASPDPTT
For the protein B1, the Michaelis constant (Km) – broadly, the concentration of substrate that gives half-maximal velocity – amounted to 57 ± 12 µM; the kcat (as a rule, the maximal rate divided by the concentration of active sites) is 0.002 s⁻¹; the kcat/Km – broadly, the turnover number divided by the Michaelis constant – was 35 M⁻¹ s⁻¹.

These data come from paper PMC3834327, “N ^6-Substituted AMPs Inhibit Mammalian Deoxynucleotide N-Hydrolase DNPH1” (PLoS ONE, 2013).
